Read-outs that look alike come from different tables or passages of the source.
Tests used:
[1] = target: T1, carcinoembryonic antigen (CEA) (human, UniProt P06731 35-685); test: 125I-CEA radioimmunoassay
T1 construct: also called CEACAM5; CD66e
T1 sequence (looked up): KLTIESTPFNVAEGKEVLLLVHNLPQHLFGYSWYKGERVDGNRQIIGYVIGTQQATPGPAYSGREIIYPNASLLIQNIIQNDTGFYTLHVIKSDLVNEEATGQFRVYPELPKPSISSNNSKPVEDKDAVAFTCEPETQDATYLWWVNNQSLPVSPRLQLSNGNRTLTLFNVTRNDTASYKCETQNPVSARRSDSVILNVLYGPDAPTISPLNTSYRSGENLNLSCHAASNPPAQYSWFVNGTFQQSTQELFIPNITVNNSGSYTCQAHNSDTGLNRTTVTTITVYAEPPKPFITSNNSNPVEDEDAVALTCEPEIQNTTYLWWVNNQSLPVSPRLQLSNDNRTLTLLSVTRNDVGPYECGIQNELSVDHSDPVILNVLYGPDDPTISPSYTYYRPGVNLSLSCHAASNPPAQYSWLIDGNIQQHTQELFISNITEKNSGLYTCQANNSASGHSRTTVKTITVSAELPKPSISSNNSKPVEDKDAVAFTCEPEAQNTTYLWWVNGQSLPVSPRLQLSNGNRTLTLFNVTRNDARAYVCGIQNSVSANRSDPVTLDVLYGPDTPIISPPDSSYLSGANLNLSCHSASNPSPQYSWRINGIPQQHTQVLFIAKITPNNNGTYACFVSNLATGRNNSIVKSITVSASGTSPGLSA

[2] = target: T1, carcinoembryonic antigen (CEA); test: radioiodinated MAb (100 ng/ml) with increasing CEA; free versus bound antibody by HPLC sizing gel
CEACAM5/CEACAM6 [3] = test: cell-based or functional assay
[4] = target: CEACAM6 (NCA-90) on cells (human) (UniProt P40199); test: cell-based or functional assay
[5] = target: T1, carcinoembryonic antigen (CEA); test: competitive binding assay on CEA; unlabeled competitor varied against HRP-labeled murine MN-15
CEACAM5/CEACAM6 [6] = test: cell-based or functional assay; remark: listed apart in the source
NCA-95 on HeLa cells = target: T2, NCA-95 on HeLa cells (UniProt P31997 35-320, limits assumed); test: indirect flow cytometry on HeLa-CGM6/1 transfectants
T2 construct: whole, on cells; also called HeLa-CGM6/1
T2 sequence (looked up): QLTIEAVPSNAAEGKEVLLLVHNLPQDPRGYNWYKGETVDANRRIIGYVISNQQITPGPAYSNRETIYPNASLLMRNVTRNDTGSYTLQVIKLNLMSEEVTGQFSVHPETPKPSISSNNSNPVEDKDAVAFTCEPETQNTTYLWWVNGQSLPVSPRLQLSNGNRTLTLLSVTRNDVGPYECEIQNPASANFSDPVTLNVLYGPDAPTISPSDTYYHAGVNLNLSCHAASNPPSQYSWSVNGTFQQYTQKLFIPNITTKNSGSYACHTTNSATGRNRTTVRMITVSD
Description: The reacitivty of antibodies was tested by flow cytometry with a Becton-Dickinson FACSCAN®. The biotinylated second antibody was directed against mouse IgG and was detected by a streptavidin/phycoerythrin conjugate. Tests were carried out with antibodies at 1/50 dilution of 1 mg/ml stocks.
The antibodies MN-3 and MN-15 were tested for recognition of HeLa cells transfected with cDNA coding for CEA (HeLa-CEA2), NCA-90 (HeLa-KNC6/S44) and NCA-95 (HeLa-CGM6/1). As a negative control, HeLa cells transfected with the plasmid pSV2-Neo (control HeLa cells, HeLa-NeoA) were used. In addition to the antibodies MN-3 and MN-15, three control antibodies were included: […]

With NP-4 antibody the percent of radioiodinated CEA bound [1] was under 50% and the CEA concentration for 50% complexation of the antibody [2] was 1 to 2 µg/mL.

MN-3 Fab′ gave an adhesion-inhibition of MCF-7, HT-29, BT-20 and Moser cells to endothelial cells (CEACAM5/CEACAM6 [3]) of 49 to 58%, a reduction of cell invasion, BXPC3, collagen-based invasion assay [4] of 0% and a reduction of cell invasion, CaPAN-1, collagen-based invasion assay [4] of 55%. It also gave a reduction of cell invasion, LS174T, collagen-based invasion assay [4] of 3%, a reduction of cell invasion, MCF-7, collagen-based invasion assay [4] of 47% and a reduction of cell invasion, ZR75-30, collagen-based invasion assay [4] of 59%.

B1: humanized MN-15 antibody (antibody, V domains shown)
VH: QVQLVESGGGVVQPGRSLRLSCSSSGFALTDYYMSWVRQAPGKGLEWLGFIANKANGHTTDYSPSVKGRFTISRDNSKNTLFLQMDSLRPEDTGVYFCARDMGIRWNFDVWGQGTPVTVSS
VL: DIQLTQSPSSLSASVGDRVTMTCSASSRVSYIHWYQQKPGKAPKRWIYGTSTLASGVPARFSGSGSGTDFTFTISSLQPEDIATYYCQQWSYNPPTFGQGTKVEIKR
notes: Humanized variable regions (REI VK and KOL VH frameworks) cloned alongside human IgG1 constant region genes; also called hMN-15
For B1, the “IC50 (read off the curve)” value [5] was about 5 nM.

B2: MN-15 Fab′ (Fab, V domains shown)
VL: DIQLTQSPAIMSASPGEKVTMTCSASSRVSYIHWYQQKSGTSPKRWIYGTSTLASGVPARFSGSGSGTSYSLTISSMEAEDAATYYCQQWSYNPPTFGAGTKLELKR
VH: EVRLVESGGGLVQGPGSLRLSCAASGFALTDYYMSWVRQSPGKTLEWLGFIANKANGHTTDYSPSVKGRFTISRDNSQTILYLQMNTLRTEDSATYYCARDMGIRWNFDVWGQGTTVTVSS
B2 gave an adhesion-inhibition of MCF-7, HT-29, BT-20 and Moser cells to endothelial cells (CEACAM5/CEACAM6 [6]) of 49 to 58%.

B3: murine MN-15 antibody (antibody, mouse IgG1, V domains shown)
VH: B2 VH
VL: B2 VL
notes: also called mMN-15; MN-15 IgG
Molecule B3 has a decrease of adhesion of CaPAN-1 cells to fibronectin (CEACAM5/CEACAM6 [6]) of 47%, a decrease of adhesion of MCF-7 cells to fibronectin (CEACAM5/CEACAM6 [6]) of 29% and a decrease of adhesion of MDA-468 cells to fibronectin (CEACAM5/CEACAM6 [6]) of 51%. For the same molecule, the binding result (NCA-95 on HeLa cells) was “binds” and the “IC50 (read off the curve)” value [5] was about 5 nM.

B4: chimeric MN-15 antibody (antibody, V domains shown)
VH: B2 VH
VL: B2 VL
For B4, the “IC50 (read off the curve)” value [5] was about 5 nM.
